Values belong to the compound of their own block, whether it stands above or below them. Ends that are not written are not given here. * marks the point of attachment. Biotin = O=C1N[C@H]2[C@H](CS[C@H]2CCCCC(=O)*)N1
How the values were obtained:
Type in all cases: binding
[1] = target: T1, PDZ protein (GST-PDZ fusion) (Homo sapiens, UniProt Q9NZW5); test: G' assay (10 uM PL peptide), results of TABLE 7 and TABLE 12; conditions: PDZ P55T, PDZ Domain 1
T1 construct: made in house; host or cells: E. coli (DH5alpha, BL21 or JM109)
T1 sequence (Q9NZW5 1-540): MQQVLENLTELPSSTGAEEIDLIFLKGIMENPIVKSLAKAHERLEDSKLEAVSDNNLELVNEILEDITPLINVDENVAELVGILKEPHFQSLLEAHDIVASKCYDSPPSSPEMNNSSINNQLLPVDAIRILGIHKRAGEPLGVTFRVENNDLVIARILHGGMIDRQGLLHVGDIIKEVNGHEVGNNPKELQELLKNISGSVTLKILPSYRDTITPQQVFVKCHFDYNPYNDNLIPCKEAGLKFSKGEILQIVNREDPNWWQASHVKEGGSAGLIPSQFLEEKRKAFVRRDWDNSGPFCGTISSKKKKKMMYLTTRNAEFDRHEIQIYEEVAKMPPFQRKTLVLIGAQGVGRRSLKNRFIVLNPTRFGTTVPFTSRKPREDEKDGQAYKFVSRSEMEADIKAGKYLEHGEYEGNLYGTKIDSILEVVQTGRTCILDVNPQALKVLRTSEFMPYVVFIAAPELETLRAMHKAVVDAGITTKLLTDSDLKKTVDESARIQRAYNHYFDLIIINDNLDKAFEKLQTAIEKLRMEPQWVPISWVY
Procedure, shortened: (§1)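 Biotinylated PL peptides at 10 uM (vs 20 uM in G^0 assay) bound to GST-PDZ fusions; PDZ protein at 5 ug/ml unless another concentration listed. Bound peptide read as A450 nm, classified 0–5 (0 = A450 0; 5 = A450 >4 repeated).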

[2] = target: T2, PDZ protein (GST-PDZ fusion) (Homo sapiens, UniProt Q8IVF5); test: as above; conditions: PDZ TIAM-2, PDZ Domain 1
T2 construct: made in house; host or cells: E. coli (DH5alpha, BL21 or JM109)
Procedure, shortened: as §1

[3] = target: T3, TIP-1 (GST-TIP-1) (Homo sapiens, UniProt O14907, I73S); test: G assay with unlabeled 8 amino acid competitor peptide (Example 4, FIGS. 2B, 2C)
T3 construct: made in house; host or cells: E. coli DH5alpha
T3 sequence (O14907 3-123 I73S): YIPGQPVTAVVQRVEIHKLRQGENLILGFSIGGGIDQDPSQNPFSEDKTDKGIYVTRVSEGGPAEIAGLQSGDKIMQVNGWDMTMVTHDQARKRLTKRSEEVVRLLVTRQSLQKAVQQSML
Procedure: FIGS. 2A, 2B and 2C show binding and competition assays with the PDZ ligands of CD95 (Fas) and Tax for the PDZ domain of TIP-1.
Upon infection, the higher affinity of Tax could preferentially bind TIP-1 protein available in the cell, removing the TIP-1 bound to CD95 (Fas) and thereby rendering the cell less able to undergo apoptosis. In order to test this, competition experiments between Tax and CD95 for TIP-1 binding were performed using the ‘G Assay’, but adding additional unlabeled competitor peptide at step 9 of the ‘G Assay’ presented in EXAMPLE 3 section D.
FIGS. 2B and 2C show the results of these experiments. The graphs show the amount of binding of the biotinylated 20 amino acid peptide in the presence of increasing concentrations of unlabeled 8 amino acid competitor.

T2 sequence (Q8IVF5 whole entry, the tested form may be a part): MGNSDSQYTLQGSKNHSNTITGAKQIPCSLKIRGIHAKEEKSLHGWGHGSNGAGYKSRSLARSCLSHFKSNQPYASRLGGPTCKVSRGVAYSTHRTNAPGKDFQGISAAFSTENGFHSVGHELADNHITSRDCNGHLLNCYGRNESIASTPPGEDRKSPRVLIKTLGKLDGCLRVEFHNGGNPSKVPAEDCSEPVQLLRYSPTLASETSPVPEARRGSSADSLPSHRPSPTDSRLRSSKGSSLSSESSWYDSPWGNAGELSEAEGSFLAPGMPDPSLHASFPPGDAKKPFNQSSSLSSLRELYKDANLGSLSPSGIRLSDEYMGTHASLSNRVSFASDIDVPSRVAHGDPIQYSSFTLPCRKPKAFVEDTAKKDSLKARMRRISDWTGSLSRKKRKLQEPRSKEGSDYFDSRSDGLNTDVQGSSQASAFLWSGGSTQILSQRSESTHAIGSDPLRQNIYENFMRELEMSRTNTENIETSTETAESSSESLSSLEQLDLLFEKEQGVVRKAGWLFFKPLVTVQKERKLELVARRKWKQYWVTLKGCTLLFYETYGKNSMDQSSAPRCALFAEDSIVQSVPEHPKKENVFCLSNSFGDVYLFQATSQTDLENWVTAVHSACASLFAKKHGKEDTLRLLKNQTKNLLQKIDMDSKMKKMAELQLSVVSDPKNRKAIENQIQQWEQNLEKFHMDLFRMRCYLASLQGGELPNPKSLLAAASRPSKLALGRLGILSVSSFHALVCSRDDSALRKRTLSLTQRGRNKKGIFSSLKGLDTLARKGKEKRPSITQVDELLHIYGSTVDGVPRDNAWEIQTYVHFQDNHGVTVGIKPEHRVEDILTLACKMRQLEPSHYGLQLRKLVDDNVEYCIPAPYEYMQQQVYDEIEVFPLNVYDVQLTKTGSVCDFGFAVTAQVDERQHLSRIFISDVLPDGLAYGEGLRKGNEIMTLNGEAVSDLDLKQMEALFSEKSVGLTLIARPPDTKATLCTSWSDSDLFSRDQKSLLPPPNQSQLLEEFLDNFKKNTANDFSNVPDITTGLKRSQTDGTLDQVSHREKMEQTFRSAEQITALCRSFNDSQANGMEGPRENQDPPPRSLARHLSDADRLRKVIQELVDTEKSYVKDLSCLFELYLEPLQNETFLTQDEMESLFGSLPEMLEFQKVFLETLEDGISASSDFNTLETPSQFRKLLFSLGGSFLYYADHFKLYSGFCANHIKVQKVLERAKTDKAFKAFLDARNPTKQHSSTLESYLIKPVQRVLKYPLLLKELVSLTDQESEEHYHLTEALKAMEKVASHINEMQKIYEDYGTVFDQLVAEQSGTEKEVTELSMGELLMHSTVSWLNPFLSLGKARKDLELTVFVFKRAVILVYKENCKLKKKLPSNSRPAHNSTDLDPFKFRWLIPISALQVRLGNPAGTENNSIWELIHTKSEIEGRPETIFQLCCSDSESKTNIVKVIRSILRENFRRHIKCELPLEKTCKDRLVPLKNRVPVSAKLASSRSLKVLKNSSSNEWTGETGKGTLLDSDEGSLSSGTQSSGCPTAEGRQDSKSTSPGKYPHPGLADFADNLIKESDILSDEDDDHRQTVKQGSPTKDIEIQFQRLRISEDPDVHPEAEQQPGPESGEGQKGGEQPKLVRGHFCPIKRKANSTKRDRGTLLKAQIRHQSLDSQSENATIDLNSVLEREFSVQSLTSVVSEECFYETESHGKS

Classification [1]: 1 (A450 nm 0-1)
Compound: KTMPAAMFRLLTGQETPLYI (Biotin-KTMPAAMFRLLTGQETPLYI) [MINT-2]

Classification [2]: 3 (A450 nm 2-3)
Compound: ELLQFCRTPNPALKNGQYWV (Biotin-ELLQFCRTPNPALKNGQYWV)

Compound: CC[C@H](C)[C@H](NC(=O)[C@H](CCC(N)=O)NC(=O)CCCC[C@@H]1SC[C@@H]2NC(=O)N[C@@H]21)C(=O)N[C@@H](CO)C(=O)N1CCC[C@H]1C(=O)NCC(=O)NCC(=O)N[C@@H](CC(C)C)C(=O)N[C@@H](CCC(=O)O)C(=O)N1CCC[C@H]1C(=O)N1CCC[C@H]1C(=O)N[C@@H](CO)C(=O)N[C@@H](CCC(=O)O)C(=O)N[C@@H](CCCCN)C(=O)N[C@@H](Cc1c[nH]cn1)C(=O)N[C@@H](Cc1ccccc1)C(=O)N[C@@H](CCCNC(=N)N)C(=O)N[C@@H](CCC(=O)O)C(=O)N[C@H](C(=O)N[C@@H](CCC(=O)O)C(=O)N[C@H](C(=O)O)C(C)C)[C@@H](C)O [Tax]
competition for binding to TIP-1 with labeled CD95 (FIG. 2B) ([3]; unlabeled 8 amino acid Tax competitor at 20, 100, and 500 μM, 20 μM labeled CD95 20-mer): able to compete
excess able to compete effectively for TIP-1 binding ([3]; unlabeled Tax 8-mer versus labeled CD95): 5 fold

From US20050282743A1, “Molecular interactions in cells” (Arbor Vita Corporation, priority 2001, published 2005)
